Measured values as given in the supplement of paper PMC10201428.
± gives the standard deviation of the averaged measurements.

B1: library; a variant is named by its letters at N, in order (parent)
chain: AATGTTGTTGATGCAACCATAAAGTGATATTTAATAATTATTTATAATCAGCAACTTAACCACAAAACAACCATATATTGATATNTCACAAAACAACCATAANTTGATATTTTTGTGAATCGAGTATTTCAGCAAAACTACTGCAGTAAGAA

Legend:
[1] = variants of: B1; assay: relative integration efficiency (T-LR orientation) vs wild-type transposon end (log2 (normalized fold change)); transposon end mutated: left end; higher = more efficient transposition; conditions: with VchCAST RNA-guided transposition machinery (E. coli BL21(DE3) host, lacZ target)
Summary of the method: (§1)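 Pools of 1549 left-end or 1849 right-end barcoded transposon variants were cloned into a pUC57 mini-transposon donor and co-transformed into E. coli BL21(DE3) with a T7-driven effector plasmid carrying a CRISPR array, tniQ-cas8-cas7-cas6 and tnsA-tnsB-tnsC. Plating used 0.1 mM IPTG at 37°C for 18 h, and input plasmids and genomic integration junctions were PCR-amplified for Illumina sequencing, with two biological output replicates and four reference barcodes. Relative integration efficiency is the log-transformed fold change of output over input barcode abundance, normalised to the reference barcodes.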

[2] = variants of: B1; assay: relative integration efficiency (T-RL orientation) vs wild-type transposon end (log2 (normalized fold change)); transposon end mutated: left end; higher = more efficient transposition; conditions: with VchCAST RNA-guided transposition machinery (E. coli BL21(DE3) host, lacZ target)
Summary of the method: as §1

Variant	relative integration efficiency (log2) [1]	relative integration efficiency (log2) [2]
CG A101T A102T	-0.713 ± 0.59	-0.513 ± 0.27
CG A88C C89A	0.0423 ± 0.026	0.0174 ± 0.062
CG A99C T100G A101C A102C	-1.07 ± 1.4	-1.82 ± 0.89
CG A64T A65T A66T A67T	-0.239 ± 0.35	-0.0292 ± 0.19
CG A77T T78A T79A G80C	-3.86 ± 2.7	-2.18 ± 0.89
CG A65C A66C	0.318 ± 0.48	0.0588 ± 0.077
CG A99G	-0.0966 ± 0.58	-0.278 ± 0.18
CG A99C	-1.01 ± 0.78	-1.23 ± 0.65
CG A99T	-1.41 ± 0.62	-0.877 ± 0.54
CG A65C A66C A67C C68A	-1.01 ± 0.56	-0.474 ± 0.22
CG A77C T86G	0.141 ± 0.0087	-0.217 ± 0.029
CG A81C T82G A83C T84G	-1.87 ± 0.22	-1.9 ± 0.68
CG A92G	-0.495 ± 0.53	-0.563 ± 0.18
CG A92C	-0.321 ± 0.19	-0.313 ± 0.19
CG A92T	0.606 ± 0.37	-0.0452 ± 0.064
CG A90T A91T	0.245 ± 0.23	-0.308 ± 0.26
CG A109C T110G	-1.25 ± 1.3	-0.936 ± 0.53
CG C17A C18A A19C T20G	-3.01 ± 0.42	-2.69 ± 0.85
CG A75T T76A A77T T78A	-0.0527 ± 0.32	-0.453 ± 0.37
CG C17G C18G	-0.437 ± 0.49	-0.313 ± 0.33
CG C17A C18A	-1.03 ± 1	-1.15 ± 0.71
CG C14A C68A C94A	-1.29 ± 1.1	-0.864 ± 0.51
CG A67T C68G A69T A70T	-1.78 ± 0.54	-1.55 ± 0.73
CG A88T C89G A90T A91T	-0.283 ± 0.86	-0.432 ± 0.33

Variant	relative integration efficiency (log2) [1]	relative integration efficiency (log2) [2]
CG A62C C63A A64C A65C	-0.604 ± 0.18	-0.324 ± 0.044
CG A66T A67T C68G A69T	-1 ± 0.9	-0.447 ± 0.35
CG A67C C68A A69C A70C	-0.846 ± 1.2	-0.531 ± 0.42
CG A90T A91T A92T A93T	-0.429 ± 0.24	-0.557 ± 0.36
CG A67C C68A	-0.165 ± 0.81	-0.108 ± 0.25
CG C55A T56G	-0.293 ± 0.89	0.0947 ± 0.38
CG C60A C61A A62C C63A	0.51 ± 0.29	0.406 ± 0.095
CG C60A C61A	0.547 ± 0.41	0.353 ± 0.049
CG C18G A19T	-1.25 ± 0.29	-1.13 ± 0.5
CG A83G	0.426 ± 0.3	0.00989 ± 0.23
CG A83C	0.152 ± 0.25	0.0829 ± 0.27
CG A83T	-0.465 ± 0.53	-0.189 ± 0.057
CG A96C C97A C98A A99C	-1.79 ± 0.72	-2.25 ± 0.85
CG A107T T108A A109T T110A	-0.765 ± 0.3	-0.783 ± 0.46
CG C17A C71A C97A	-0.871 ± 0.35	-1.21 ± 0.59
CG A66T A67T	0.205 ± 0.48	-0.0368 ± 0.048
CG A64C A65C	-0.354 ± 0.13	-0.201 ± 0.15
CG A88C C89A A90C A91C	-0.0905 ± 0.58	-0.404 ± 0.32
CG A81T T82A A83T T84A	-0.679 ± 1.2	-0.753 ± 0.74
CG A93C C94A A95C A96C	-0.979 ± 1.9	-1.09 ± 0.56
CG A77T T78A	0.574 ± 0.48	0.149 ± 0.12
CG A83T T84A	-0.352 ± 0.65	-0.194 ± 0.16
CG A65T A66T A67T C68G	-0.641 ± 0.54	-0.247 ± 0.37
CG C49G A50T	-0.94 ± 0.92	-0.509 ± 0.62

Variant	relative integration efficiency (log2) [1]	relative integration efficiency (log2) [2]
CG C18A A19C	-1.46 ± 0.83	-1.68 ± 0.79
CG A88C	-0.0509 ± 0.39	-0.148 ± 0.082
CG A88G	-0.182 ± 0.22	-0.24 ± 0.098
CG A88T	0.112 ± 0.73	0.0226 ± 0.1
CG A73T T74A	-0.734 ± 0.56	-0.97 ± 0.4
CG A91C	-0.299 ± 1.1	-0.278 ± 0.17
CG A91G	0.0207 ± 0.21	-0.155 ± 0.14
CG A91T	-0.0651 ± 0.68	-0.101 ± 0.084
CG A95T A96T C97G C98G	-1.79 ± 0.29	-1.94 ± 0.81
CG A73C T74G	-2.3 ± 0.72	-2.37 ± 0.86
CG A93T C94G A95T A96T	-2.14 ± 0.41	-1.82 ± 0.58
CG C14T	0.167 ± 0.37	-0.295 ± 0.18
CG C14A	-0.739 ± 0.55	-0.546 ± 0.32
CG C14G	-0.527 ± 0.35	-0.0895 ± 0.33
CG A99T T100A	-1.17 ± 0.8	-1.19 ± 0.47
CG A91T A92T A93T C94G	-1.3 ± 1.2	-1.4 ± 0.69
CG A66C A67C C68A A69C	-0.943 ± 0.25	-0.685 ± 0.37
CG C52G	0.484 ± 0.31	-0.00219 ± 0.15
CG C52A	0.484 ± 0.55	0.279 ± 0.017
CG C52T	0.154 ± 0.19	0.201 ± 0.14
CG A66C C68A A69C A70C C71A C72T A77T T78G T79A G80T A83C T86A C87A	-2.717 ± 0.015	-1.87 ± 0.77
CG A69T A70T C71G C72G	-1.93 ± 1.4	-1.77 ± 0.77
CG C49A A50T C52T T56C T57A C60A C61G A62T C63A	-3.63 ± 0.43	-5.28 ± 0.94
CG A77T	-0.192 ± 0.066	-0.217 ± 0.059

Variant	relative integration efficiency (log2) [1]	relative integration efficiency (log2) [2]
CG A77G	0.0745 ± 0.45	-0.243 ± 0.024
CG A77C	0.611 ± 0.89	0.337 ± 0.052
CG C49T	-0.164 ± 0.35	0.0612 ± 0.15
CG C49G	0.811 ± 0.52	0.127 ± 0.33
CG C49A	-0.195 ± 0.69	0.178 ± 0.24
CG C60G	0.358 ± 0.26	-0.0988 ± 0.017
CG C60A	0.503 ± 0.15	0.0973 ± 0.034
CG C14G A15T	-1.58 ± 0.72	-0.642 ± 0.37
CG C14A A15C	-0.0841 ± 0.4	-0.0319 ± 0.34
CG C49A A50C	-0.934 ± 0.45	-0.598 ± 0.47
CG C49A A50C G51T C52A	-1.02 ± 1.1	-0.71 ± 0.6
CG C17T	-0.0678 ± 0.41	-0.0235 ± 0.16
CG C17A	0.131 ± 0.49	0.0401 ± 0.23
CG C17G	0.155 ± 0.37	-0.344 ± 0.25
CG A62T C63G	-0.0229 ± 0.67	0.275 ± 0.072
CG A81C T82G	-1.43 ± 0.033	-0.963 ± 0.26
CG A102C	-1.3 ± 0.53	-1.12 ± 0.46
CG A102T	0.323 ± 0.19	-0.123 ± 0.24
CG A102G	-1.58 ± 1.1	-0.825 ± 0.55
CG A81G	-0.37 ± 0.32	-0.449 ± 0.27
CG A81C	-0.551 ± 0.4	-0.479 ± 0.28
CG A81T	-0.4 ± 0.15	-0.396 ± 0.57
CG C18G A19T T20A A21T	-2.57 ± 1.4	-1.37 ± 0.56
CG A62C C63A	-0.193 ± 0.12	0.182 ± 0.065

Variant	relative integration efficiency (log2) [1]	relative integration efficiency (log2) [2]
CG A119C T120G C121A G122T A123C G124T T125G	-0.964 ± 0.063	-0.304 ± 0.022
CG A91C A92C A93C C94A	-0.269 ± 0.36	-0.581 ± 0.55
CG C49G G51T C52G C55T A58T A59T C60A C61T A62G	-4.34 ± 2.5	-4.9 ± 0.68
CG A118C A119C T120G C121A G122T A123C G124T T125G	-0.0272 ± 0.24	0.0769 ± 0.16
CG A119T	0.893 ± 0.42	0.51 ± 0.29
CG A119G	0.273 ± 0.044	0.0234 ± 0.071
CG A119C	0.11 ± 0.18	-0.107 ± 0.1
CG A70T C71G C72G A73T	-2.15 ± 0.26	-2.22 ± 0.88
CG A95C A96C C97A C98A	-1.32 ± 1.8	-2.14 ± 0.8
CG A77C T78G T79G G80T	-2.28 ± 1.1	-1.57 ± 0.49
CG A119T T120A	-0.0736 ± 0.29	-0.226 ± 0.056
GG A83T T84A T86A	-0.405 ± 0.36	-0.604 ± 0.36
CG A64C A65C A66C A67C	-0.691 ± 0.34	-0.323 ± 0.18
CG C17G C18G A19T T20A	-1.28 ± 0.64	-1.56 ± 0.94
CG C14G C68G C94G	-2.2 ± 0.43	-2.49 ± 1.3
CG A93C C94A	-0.406 ± 0.83	-0.522 ± 0.41
CG A123C G124T T125G	-0.277 ± 0.038	-0.171 ± 0.067
CG A67T C68G	-0.364 ± 0.41	-0.543 ± 0.47
CG A107C T108G A109C T110G	-2.3 ± 1.2	-1.64 ± 0.79
CG A70T C71G	-0.292 ± 0.66	-0.898 ± 0.41
